Data reported in patent publication US20200392528A1, “IMPROVED PLANT EPSP SYNTHASES AND METHODS OF USE” (PIONEER HI-BRED INTERNATIONAL, INC., priority 2017, published 2020).
Where a chain is given by its changes, count along the chain named.

B1: Zm D2-3P124: maize EPSPS variant, SEQ ID NO: 3; D2-124 has 18 mutations (protein)
chain: MRKWEEIVLQPIKEISGTVKLPGSKSLSNRILLLAALSEGTTVVDNLLNSEDVGYMLGALRTLGLSVEHDEAAKRAVVVGCGGRFPVEDAKGEVQLFCGNAATAMRPLTAAVTAAGGNATYVLDGVPRMRERPIGDLVVGLKQLGADVDCFLGTDCPPVRVNGIGGLPGGKVKLSGSISSQYLSALLMAAPLALGDVEIEIIDKLISLPYVEMTLRLMERFGVRAEHSDSWDRFYIKGGQKYESPKNAYVEGDASSASYFLAGAAITGGTVTVEGCGTTSLQGDVKFAEVLEMMGAKVTWTETSVTVTGPPREPFGRKHLKAIDVNMNKMPDAAMTLAVVALFADGPTAIRDVGSWRVKETERMVAIRTELTKLGASVEEGPDYCIITPPPKLNVTAIDTYGDHRMAMAFSLAACGEVPVTIRDPGCTRKTFPDYFDVLSTFVKN
modifications: Zea mays
notes: D2-124 has 18 mutations
B2: Zm D2c-A5: maize EPSPS variant with 21 mutations, SEQ ID NO: 59 (protein)
chain: B1 chain with R2S, N162R, M293L, E302P
modifications: Zea mays
B3: Zm D2-28: maize EPSPS variant, SEQ ID NO: 8 (protein)
chain: MRKWEEIVLQPIKEISGTVKLPGSKSLSNRILLLAGLAEGTTVVDNLLNSEDVHYMLGALRTLGLSVEHDKAAKRAVVVGCGGRFPVEDAKGEVQLFCGNAATAMRPLTAAVTAAGGNATYVLDGVPRMRERPIGDLVVGLKQLGADVDCFLGTDCPPVRVNGIGGLPGGKVKLSGSISSQYLSALLMAAPLALGDVEIEIIDKLISLPYVEMTLRLMERFGVKAERSDSWDRFYIKGGQSYLSPKNAYVEGDASSASYFLAGAAITGGTVTVEGCGTTSLQGDVKFAEVLEMMGAKVTWTEASVTVTGPPREPFGRKHLKAIDVNMNKMPDAAMTLAVVALFADGPTAIRDVGSWRVKETERMVAIRTELTKLGASVEEGPDYCIITPPEKLNVTAIDTYGDHRMAMAFSLAACAEVPVTIRDPGCTRKTFPDYFDVLSTFVKN
modifications: Zea mays
B4: Zm D2-67: maize EPSPS variant, SEQ ID NO: 5 (protein)
chain: B1 chain with G54H, E71K, R224K, G416A
modifications: Zea mays
B5: Zm D2-68: maize EPSPS variant, SEQ ID NO: 4 (protein)
chain: B1 chain with S38A, G54L, E71K, R224K, E243L, G354A, R368C, G416A
modifications: Zea mays
B6: Zm D2-82: maize EPSPS variant, SEQ ID NO: 6 (protein)
chain: B1 chain with G54H, E71K, R224K, R368C, G416A
modifications: Zea mays
B7: Zm F3: maize EPSPS variant, SEQ ID NO: 11 (protein)
chain: MAGAEEIVLQPIKEISGTVKLPGSKSLSNRILLLAALSEGTTVVDNLLNSEDVHYMLGALRTLGLSVEADKAAKRAVVVGCGGKFPVEDAKEEVQLFCGNAATAMRPLTAAVTAAGGNATYVLDGVPRMRERPIGDLVVGLKQLGADVDCFLGTDCPPVRVNGIGGLPGGKVKLSGSISSQYLSALLMAAPLALGDVEIEIIDKLISIPYVEMTLRLMERFGVKAEHSDSWDRFYIKGGQKYKSPKNAYVEGDASSASYFLAGAAITGGTVTVEGCGTTSLQGDVKFAEVLEMMGAKVTWTETSVTVTGPPREPFGRKHLKAIDVNMNKMPDVAMTLAVVALFADGPTAIRDVASWRVKESERMVAIRTELTKLGASVEEGPDYCIITPPEKLNVTAIDTYGDHRMAMAFSLAACAEVPVTIRDPGCTRKTFPDYFDVLSTFVKN
modifications: Zea mays
B8: Zm F3-88: maize EPSPS variant, SEQ ID NO: 12 (protein)
chain: B7 chain with H54G, R216V, E226Y, K297A, V333A, R429A
modifications: Zea mays

What follows are molecules tested against maize EPSPS (assay: substrate saturation kinetic analysis (kcat, KM PEP, KI glyphosate)). Details: Ki for glyphosate.
Type: biochemical
Description: (§1) EPSPS activity was determined by quantifying the phosphate generated from the EPSPS reaction. Release of inorganic phosphate was coupled to its reaction with 2-amino-6-mercapto-7-methylpurine ribonucleoside (MESG), catalyzed by purine nucleoside phosphorylase, according to previously described protocols. To determine the kcat gly, enzyme preparations were normalized to 0.1 mg/ml and four- to six-microliter aliquots of normalized enzyme were added to the wells of a low UV-absorbing 96-well assay plate (Greiner UV-Star). Reactions were started with the addition of 2×147 μl of reaction mixture containing 25 mM Hepes, pH 7.0, 100 mM KCl, 5% ethylene glycol, 30 μM each of PEP and S3P, 0.15 mM MESG, 1.5 U/ml purine nucleoside phosphorylase (Sigma N8264) and 1 mM glyphosate. Absorbance was monitored at 4 sec intervals for 50 sec with a Spectramax plate reader (Molecular Devices). […] Division by the enzyme concentration (0.04 to 0.1 uM, depending on activity) yields “kcat gly” in units of min^−1.
(§2) Approximately 30 substitutions were designed into each library. Assuming an average incorporation rate of six substitutions per variant, the theoretical size of such libraries is ˜7×10^5. Libraries were screened using methods described previously and the enhanced method described in Example 2. The number of colony-forming units plated and screened was in the range of 50 to 100% of the theoretical size. Up to 200 colonies per library were picked for evaluation of the expressed variant. Proteins were purified as described previously in PCT/US2016/054399, incorporated herein by reference. Protein concentration was determined by measuring optical density at 280 nm. The extinction coefficient of native maize EPSPS (0.676 OD/mg/ml) was calculated by vNTI and used to convert OD280 to mg/ml. Kinetic parameters were determined as described in Example 1.
Combinatorial shuffling, maize native EPSPS—The mutations discovered were used to construct a combinatorial library designed to explore combinations of the desensitizing mutations in novel sequence contexts provided by the newly identified neutral mutations. Note that the amino acid position numbering in this Example 10 refers to the relative position of native maize EPSPS without the N-terminal Met. Therefore, G101A in this Example would be G102A in reference to SEQ ID NO: 1, wherein the maize EPSPS sequence has a Met added at the N-terminal. The diversity used was the same with the addition of G101A, T102 (IALGV) and P106(WA). In all, 43 substitutions at 29 positions were selected. The library was synthesized entirely from oligonucleotides, using the known technique of synthetic shuffling and was termed NatFS (Native, fully synthetic). The vector DNA of the library was transformed into the BL21(DE3) Tuner-AroA knockout strain and the cells were plated onto M9 medium containing either 30 mM glyphosate and 30 μM of the lac operon inducer isopropyl β-D-1-thiogalactopyranoside (IPTG) or 50 mM glyphosate and no IPTG. The 184 colonies that grew on either plate were picked and subjected to a second tier of screening in which EPSPS proteins were purified and activity measured at high (200 μM) and low (50 μM) PEP and S3P, with or without 10 μM glyphosate. Selected variants were subjected to substrate saturation kinetic analysis.

Question: Which Ki does the source give for B1 here?
Answer: 893 ± 53 µM

Question: For B2, which Ki is on record?
Answer: 839 ± 40 µM

Same assay, conditions: Table 2

Question: For B3, which kcat is on record?
Answer: 8.03 s⁻¹

Question: What about the “kcat/KM*KI” value of the same molecule?
Answer: 21500

Question: What does the source list for B4?
Answer: kcat: 9.47 s⁻¹; kcat/KM*KI: 27100

Question: Which kcat does the source give for B5 here?
Answer: 9.23 s⁻¹

Question: What about the “kcat/KM*KI” value of the same molecule?
Answer: 37400

Question: For B6, which kcat is on record?
Answer: 10.4 s⁻¹

Question: And the “kcat/KM*KI” value?
Answer: 30900

Question: Which kcat does the source give for B1 here?
Answer: 9.88 s⁻¹

Question: What about the “kcat/KM*KI” value of the same molecule?
Answer: 22710

Question: How did the kcat turn out when B7 was run?
Answer: 7.87 s⁻¹

Question: What about the “kcat/KM*KI” value of the same molecule?
Answer: 7280

Question: With B8 as the molecule, how does the kcat read?
Answer: 11.6 s⁻¹

Question: And the “kcat/KM*KI” value?
Answer: 29600

Same assay, conditions: Table 2; KM for PEP; read-out: KM

Question: B3 was tested. Which Km did it give?
Answer: 15.8 µM

Question: B4 was tested. Which Km did it give?
Answer: 20 µM

Question: Which Km does the source give for B5 here?
Answer: 22.1 µM

Question: How did the Km turn out when B6 was run?
Answer: 26.3 µM

Question: With B1 as the molecule, how does the Km read?
Answer: 34.7 µM

Question: How did the Km turn out when B7 was run?
Answer: 71.5 µM

Question: B8 was tested. Which Km did it give?
Answer: 55.6 µM

Same assay, conditions: Table 2; discrimination between glyphosate and PEP

Question: B3 was tested. Which KI/KM did it give?
Answer: 44.5

Question: B4 was tested. Which KI/KM did it give?
Answer: 47.7

Question: B5 was tested. Which KI/KM did it give?
Answer: 67.5

Question: With B6 as the molecule, how does the KI/KM read?
Answer: 49.4

Question: B1 was tested. Which KI/KM did it give?
Answer: 38.3

Question: For B7, which KI/KM is on record?
Answer: 15.4

Question: How did the KI/KM turn out when B8 was run?
Answer: 44.0

Same assay, conditions: Table 2; inhibitor glyphosate

Question: For B3, which Ki is on record?
Answer: 703 µM

Question: With B4 as the molecule, how does the Ki read?
Answer: 955 µM

Question: For B5, which Ki is on record?
Answer: 1490 µM

Question: For B6, which Ki is on record?
Answer: 1300 µM

Question: B1 was tested. Which Ki did it give?
Answer: 1330 µM

Question: For B7, which Ki is on record?
Answer: 1100 µM

Question: B8 was tested. Which Ki did it give?
Answer: 2440 µM

Same assay, conditions: apparent Km; PEP present at 10 times its Km; read-out: Km S3P

Question: How did the Km turn out when B1 was run?
Answer: 11.1 ± 0.7 µM

Question: With B2 as the molecule, how does the Km read?
Answer: 12.6 ± 1.4 µM

Same assay, conditions: apparent Km; S3P present at 10 times its Km; read-out: Km PEP

Question: With B1 as the molecule, how does the Km read?
Answer: 18.1 ± 0.7 µM

Question: Which Km does the source give for B2 here?
Answer: 18.1 ± 0.6 µM

Same assay, conditions: calculated with Km for PEP

Question: With B1 as the molecule, how does the “kcat/Km*Ki” value read?
Answer: 31130

Question: For B2, which “kcat/Km*Ki” value is on record?
Answer: 34350

Same assay, conditions: maize EPSPS variants

Question: How did the kcat turn out when B1 was run?
Answer: 10.5 ± 0.083 s⁻¹

Question: For B2, which kcat is on record?
Answer: 12.4 ± 0.1 s⁻¹

These molecules were tested on maize EPSPS (assay: kcat gly / kgly: enzyme turnover under application conditions (30 μM PEP and S3P, 1 mM glyphosate), phosphate release coupled to MESG). Details: D2c variants with substitutions relative to D2-124; no unit in table (kcat gly given in min^−1).
Type: biochemical
Description: A more straight-forward, accurate and meaningful parameter is one in which one rate measurement is performed under presumed in vivo conditions, if known. To establish a set of conditions that mimic those under which the mutated enzyme needs to perform, the concentrations of PEP and S3P were set low (30 uM, subject to the sensitivity of assay conditions) to approach the presumed intracellular concentrations (˜15 uM, the approximate values of KM for both PEP and S3P). Glyphosate is included at 1 mM. The pH is set at 7.0 and ionic strength at 100 mM KCl, also to mimic known in vivo conditions. Ethylene glycol is present at 5% (v/v) to approximate the dielectric constant of intracellular fluid. The parameter is termed “enzyme turnover under application conditions”, which is herein shortened to “kcat gly”. The conventional formatting of the expression “kcat” is not used, to avoid this term being characterized as a standard kinetic constant.
as §1, §2
A customized parameter for predicting performance in the treated plant that would be a more accurate representation than kcat/Km*Ki. […] However, kcat/Km*Ki may be inadequate for predicting the reaction velocity under the conditions of the application (plants sprayed with glyphosate) because it may neglect concentrations of substrate and inhibitor, factors that are not intrinsic to the enzyme, but on which the reaction rate depends. Therefore, libraries derived from C1 on in FIG. 2 were evaluated with a single rate measurement designed to take all factors in the rate equation for competitive inhibition into account. […] Glyphosate was included at 1 mM, a concentration attainable in tissues, especially meristems, receiving metabolite flow from treated leaves. The pH (7.0), ionic strength (100 mM KCl) and co-solvent concentration (5% ethylene glycol) were also intended to mimic in vivo conditions. The unit for the parameter is reaction rate (μM·min^−1) per enzyme concentration (μM), or min^−1, describing the enzyme turnover under application conditions, which we abbreviate as “kgly”. […]

Question: Which kcat gly does the source give for B2 here?
Answer: 156

Same assay, conditions: Table 2; 30 μM PEP and S3P, 1 mM glyphosate, pH 7.0

Question: Which kcat gly does the source give for B3 here?
Answer: 120 min⁻¹

Question: B4 was tested. Which kcat gly did it give?
Answer: 119 min⁻¹

Question: With B5 as the molecule, how does the kcat gly read?
Answer: 113 min⁻¹

Question: B6 was tested. Which kcat gly did it give?
Answer: 124 min⁻¹

Question: B1 was tested. Which kcat gly did it give?
Answer: 132 min⁻¹

Question: How did the kcat gly turn out when B7 was run?
Answer: 39.3 min⁻¹

Question: How did the kcat gly turn out when B8 was run?
Answer: 85.7 min⁻¹

Same assay, conditions: Table 5; maize variants

Question: Which kcat gly does the source give for B4 here?
Answer: 138 min⁻¹

Question: With B7 as the molecule, how does the kcat gly read?
Answer: 45.2 min⁻¹

Question: Which kcat gly does the source give for B8 here?
Answer: 98 min⁻¹

Same assay, conditions: Table 5; ratio of kcat gly, maize variant to rice ortholog

Question: For B4, which Zm/Os is on record?
Answer: 1.35

Question: B7 was tested. Which Zm/Os did it give?
Answer: 1.16

Question: B8 was tested. Which Zm/Os did it give?
Answer: 1.57

Same assay, conditions: enzyme turnover at 30 μM PEP and S3P, 1 mM glyphosate

Question: With B1 as the molecule, how does the kgly read?
Answer: 175 ± 2.5 min⁻¹

Question: With B2 as the molecule, how does the kgly read?
Answer: 186 ± 4.7 min⁻¹
